Results reported in patent US6545131.

Experiments:
[1] = system: Mu-EHSSKLQ-AMC (Glu-His-Ser-Ser-Lys-Leu-Gln; SEQ ID NO:10)
[2] = system: Mu-HSSKLQ-AMC (His-Ser-Ser-Lys-Leu-Gln; SEQ ID NO:7)
[3] = system: Mu-KLQ-AMC
[4] = system: Mu-LQ-AMC
[5] = system: Mu-SKLQ-AMC (Ser-Lys-Leu-Gln; SEQ ID NO:1)
[6] = system: Mu-ATKSKQH-AMC (Ala-Thr-Lys-Ser-Lys-Gln-His; SEQ ID NO:13)
[7] = system: Mu-ENKISYQ-AMC (Glu-Asn-Lys-Ile-Ser-Tyr-Gln; SEQ ID NO:12)
[8] = system: Mu-QNKISYQ-AMC (Gln-Asn-Lys-Ile-Ser-Tyr-Gln; SEQ ID NO:11)
[9] = system: Mu-ATKSKQH-AMC (Ala-Thr-Lys-Ser-Lys-Gln-His; SEQ ID NO:13); assay: fluorogenic AMC-release kinetics, Lineweaver-Burke plot
[10] = system: Mu-EHSSKLQ-AMC (Glu-His-Ser-Ser-Lys-Leu-Gln; SEQ ID NO:10); assay: as above
[11] = system: Mu-HSSKLQ-AMC (His-Ser-Ser-Lys-Leu-Gln; SEQ ID NO:7); assay: as above
[12] = system: Mu-SKLQ-AMC (Ser-Lys-Leu-Gln; SEQ ID NO:1); assay: as above

Sequence of plasmin (P00747 20-580): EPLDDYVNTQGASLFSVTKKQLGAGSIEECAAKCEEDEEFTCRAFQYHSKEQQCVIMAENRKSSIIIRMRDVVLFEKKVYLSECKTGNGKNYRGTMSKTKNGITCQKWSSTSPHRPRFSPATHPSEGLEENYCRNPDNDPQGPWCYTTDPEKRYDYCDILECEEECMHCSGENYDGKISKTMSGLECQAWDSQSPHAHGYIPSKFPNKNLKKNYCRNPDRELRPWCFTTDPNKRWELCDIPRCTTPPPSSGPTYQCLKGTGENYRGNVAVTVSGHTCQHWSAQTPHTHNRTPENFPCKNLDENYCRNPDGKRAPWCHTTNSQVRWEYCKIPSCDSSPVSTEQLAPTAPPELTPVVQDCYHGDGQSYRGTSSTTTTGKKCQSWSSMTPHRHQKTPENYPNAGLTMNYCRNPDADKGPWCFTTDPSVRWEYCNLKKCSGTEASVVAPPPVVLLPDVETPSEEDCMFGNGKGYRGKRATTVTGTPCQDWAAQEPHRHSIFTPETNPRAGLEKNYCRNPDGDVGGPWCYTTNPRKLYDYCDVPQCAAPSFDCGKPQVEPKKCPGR
Sequence of plasmin (P00747 581-810): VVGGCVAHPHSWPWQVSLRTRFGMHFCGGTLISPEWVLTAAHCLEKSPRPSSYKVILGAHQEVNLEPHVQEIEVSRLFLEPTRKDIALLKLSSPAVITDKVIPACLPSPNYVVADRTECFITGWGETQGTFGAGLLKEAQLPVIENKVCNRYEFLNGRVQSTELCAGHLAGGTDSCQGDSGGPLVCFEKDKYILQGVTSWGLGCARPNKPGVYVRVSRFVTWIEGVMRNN
Sequence of tissue plasminogen activator (TPA) (P00750 36-562): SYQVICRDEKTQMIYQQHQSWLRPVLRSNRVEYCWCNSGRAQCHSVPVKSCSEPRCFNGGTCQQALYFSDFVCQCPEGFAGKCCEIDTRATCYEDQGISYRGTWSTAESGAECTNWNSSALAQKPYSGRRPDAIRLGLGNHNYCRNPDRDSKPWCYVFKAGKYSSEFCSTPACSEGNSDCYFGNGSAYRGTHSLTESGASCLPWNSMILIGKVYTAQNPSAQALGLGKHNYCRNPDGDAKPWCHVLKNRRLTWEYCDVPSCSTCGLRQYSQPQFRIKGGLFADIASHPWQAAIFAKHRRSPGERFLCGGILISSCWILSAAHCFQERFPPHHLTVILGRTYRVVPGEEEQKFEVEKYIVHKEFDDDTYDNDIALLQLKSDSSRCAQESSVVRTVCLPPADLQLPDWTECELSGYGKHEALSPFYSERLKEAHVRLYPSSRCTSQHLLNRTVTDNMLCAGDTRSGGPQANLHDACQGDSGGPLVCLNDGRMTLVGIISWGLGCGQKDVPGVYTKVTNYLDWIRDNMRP

Cathepsin B
peptide cleavage rate (AMC release) (pmol/min/200 pmol protease) [1]: 4.3
peptide cleavage rate (AMC release) (pmol/min/200 pmol protease) [2]: 17.3
peptide cleavage rate (AMC release) (pmol/min/200 pmol protease) [3]: 87
peptide cleavage rate (AMC release) (pmol/min/200 pmol protease) [4]: 190
peptide cleavage rate (AMC release) (pmol/min/200 pmol protease) [5]: 31.2

Cathepsin C
peptide cleavage rate (AMC release) (pmol/min/200 pmol protease) [1]: < 0.1
peptide cleavage rate (AMC release) (pmol/min/200 pmol protease) [2]: < 0.1
peptide cleavage rate (AMC release) (pmol/min/200 pmol protease) [3]: < 0.1
peptide cleavage rate (AMC release) (pmol/min/200 pmol protease) [4]: < 0.1
peptide cleavage rate (AMC release) (pmol/min/200 pmol protease) [5]: < 0.1

Cathepsin D
peptide cleavage rate (AMC release) (pmol/min/200 pmol protease) [1]: 2.2
peptide cleavage rate (AMC release) (pmol/min/200 pmol protease) [2]: 3.8
peptide cleavage rate (AMC release) (pmol/min/200 pmol protease) [4]: 20
peptide cleavage rate (AMC release) (pmol/min/200 pmol protease) [5]: 6.4

chymotrypsin
substrate cleavage rate (AMC release) (pmol/min/200 pmol protease) [6]: 38.8
substrate cleavage rate (AMC release) (pmol/min/200 pmol protease) [1]: < 0.1
substrate cleavage rate (AMC release) (pmol/min/200 pmol protease) [7]: 3.6
substrate cleavage rate (AMC release) (pmol/min/200 pmol protease) [8]: 9

elastase
substrate cleavage rate (AMC release) (pmol/min/200 pmol protease) [6]: < 0.1
substrate cleavage rate (AMC release) (pmol/min/200 pmol protease) [1]: < 0.1
substrate cleavage rate (AMC release) (pmol/min/200 pmol protease) [7]: 2.6
substrate cleavage rate (AMC release) (pmol/min/200 pmol protease) [8]: 9

human kallikrein, hK1
substrate cleavage rate (AMC release) (pmol/min/200 pmol protease) [6]: < 0.1
substrate cleavage rate (AMC release) (pmol/min/200 pmol protease) [1]: < 0.1
substrate cleavage rate (AMC release) (pmol/min/200 pmol protease) [7]: < 0.1

plasmin
substrate cleavage rate (AMC release) (pmol/min/200 pmol protease) [6]: < 0.1
substrate cleavage rate (AMC release) (pmol/min/200 pmol protease) [1]: < 0.1
substrate cleavage rate (AMC release) (pmol/min/200 pmol protease) [7]: 0.6
substrate cleavage rate (AMC release) (pmol/min/200 pmol protease) [8]: < 0.1

porcine liver esterase
peptide cleavage rate (AMC release) (pmol/min/200 pmol protease) [1]: < 0.1
peptide cleavage rate (AMC release) (pmol/min/200 pmol protease) [2]: < 0.1
peptide cleavage rate (AMC release) (pmol/min/200 pmol protease) [3]: < 0.1
peptide cleavage rate (AMC release) (pmol/min/200 pmol protease) [4]: < 0.1
peptide cleavage rate (AMC release) (pmol/min/200 pmol protease) [5]: < 0.1

prostate specific antigen (PSA)
Kcat [6]: 0.0091 s⁻¹
Kcat/Km [6]: 6.9 s^-1M^-1
substrate cleavage rate (AMC release) (pmol/min/200 pmol protease) [6]: 16
Kcat [1]: 0.02 s⁻¹
Kcat/Km [1]: 10.6 s^-1M^-1
peptide cleavage rate (AMC release) (pmol/min/200 pmol protease) [1]: 31.6
substrate cleavage rate (AMC release) (pmol/min/200 pmol protease) [1]: 31.6
substrate cleavage rate (AMC release) (pmol/min/200 pmol protease) [7]: 14.4
Kcat [2]: 0.011 s⁻¹
Kcat/Km [2]: 23.6 s^-1M^-1
peptide cleavage rate (AMC release) (pmol/min/200 pmol protease) [2]: 62.7
peptide cleavage rate (AMC release) (pmol/min/200 pmol protease) [3]: 0.4
peptide cleavage rate (AMC release) (pmol/min/200 pmol protease) [4]: < 0.1
substrate cleavage rate (AMC release) (pmol/min/200 pmol protease) [8]: 16.8
Kcat [5]: 0.02 s⁻¹
Kcat/Km [5]: 24.6 s^-1M^-1
peptide cleavage rate (AMC release) (pmol/min/200 pmol protease) [5]: 29.6
Km [9]: 310 µM
Km [10]: 1160 µM
Km [11]: 470 µM
Km [12]: 813 µM

thrombin
substrate cleavage rate (AMC release) (pmol/min/200 pmol protease) [6]: 0.2
substrate cleavage rate (AMC release) (pmol/min/200 pmol protease) [1]: < 0.1
substrate cleavage rate (AMC release) (pmol/min/200 pmol protease) [7]: 0.3
substrate cleavage rate (AMC release) (pmol/min/200 pmol protease) [8]: 0.4

tissue plasminogen activator (TPA)
substrate cleavage rate (AMC release) (pmol/min/200 pmol protease) [6]: < 0.1
substrate cleavage rate (AMC release) (pmol/min/200 pmol protease) [1]: < 0.1
substrate cleavage rate (AMC release) (pmol/min/200 pmol protease) [7]: 0.04
substrate cleavage rate (AMC release) (pmol/min/200 pmol protease) [8]: 0.4

urokinase
substrate cleavage rate (AMC release) (pmol/min/200 pmol protease) [6]: < 0.1
substrate cleavage rate (AMC release) (pmol/min/200 pmol protease) [1]: < 0.1
substrate cleavage rate (AMC release) (pmol/min/200 pmol protease) [7]: < 0.1
